Test results published in article PMC12700104.

Target: YxiD^CTD (C-terminal domain of YxiD, Pro428-Pro534), Bacillus subtilis 6633 (Bacillus subtilis 6633 (Bacillus subtilis subsp. spizizenii ATCC 6633))
Assay: ITC; 15 uM YxiD^CTD in the cell titrated with 150 uM YxxD in the syringe; 25°C; 20 mM HEPES pH 7.5, 150 mM NaCl; OneSite binding model

B1: YxxD immunity protein, Bacillus subtilis 6633 (natural protein)
chain: MSYNFIKSNKENDFYPVNQSEIEEVEKNLNLKLPSELVNFYLEVGYGFIKGSEFNTNRILDPYSVRDFRLRINDFEFYPDIEIYDEFENDKLIFFEGSESALMSIELNDNNKNPIYYYDIQIATSLTEFLRKIEENDQYYLDLLDDE
Kd: 9.4 nM
dH: -10.2 kcal/mol
stoichiometry N: 0.975 sites
